From article PMC9482650, “Quantitative fragmentomics allow affinity mapping of interactomes” (Nature Communications, 2022)

Key:
Test in all cases: holdup assay
Parameters in all cases: key: below the threshold = too weak to quantify, mostly under pKd 3.1 to 4
[1] = target: T1, PCLO, Q9Y6V0
T1 sequence (Q9Y6V0 4491-4600, limits assumed, looked up): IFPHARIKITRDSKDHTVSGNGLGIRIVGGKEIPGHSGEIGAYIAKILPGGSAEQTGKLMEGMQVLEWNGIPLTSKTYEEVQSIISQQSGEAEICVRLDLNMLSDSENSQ

[2] = target: T2, SIPA1L2, Q9P2F8
T2 sequence (Q9P2F8 945-1036, limits assumed, looked up): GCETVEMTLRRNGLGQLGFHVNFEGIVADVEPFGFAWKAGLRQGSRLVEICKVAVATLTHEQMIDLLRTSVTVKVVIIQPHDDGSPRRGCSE

[3] = target: T3, RADIL, Q96JH8
T3 sequence (Q96JH8 971-1071, limits assumed, looked up): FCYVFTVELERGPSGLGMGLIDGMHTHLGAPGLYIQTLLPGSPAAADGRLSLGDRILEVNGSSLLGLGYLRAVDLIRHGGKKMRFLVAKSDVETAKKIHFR

[4] = target: LAP2, Q96RT1
LAP2, Q96RT1, sequence (Q96RT1 other isoform, or with tags, fused parts or gaps): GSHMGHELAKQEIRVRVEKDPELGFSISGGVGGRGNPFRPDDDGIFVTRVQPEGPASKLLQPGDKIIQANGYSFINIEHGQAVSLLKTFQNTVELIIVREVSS

[5] = target: DLG2_3, Q15700
[6] = target: LIMK2, P53671
LIMK2, P53671, sequence (P53671 143-248): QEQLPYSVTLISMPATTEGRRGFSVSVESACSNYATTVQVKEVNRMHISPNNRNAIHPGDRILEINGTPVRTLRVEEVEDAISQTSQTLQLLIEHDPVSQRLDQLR

[7] = target: T4, SHANK1, Q9Y566
T4 sequence (Q9Y566 658-767, limits assumed, looked up): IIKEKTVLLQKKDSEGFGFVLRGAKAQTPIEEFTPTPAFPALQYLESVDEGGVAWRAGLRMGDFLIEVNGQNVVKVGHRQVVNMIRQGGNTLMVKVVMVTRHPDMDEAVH

[8] = target: ARHGEF12, Q9NZN5-2
ARHGEF12, Q9NZN5-2, sequence (Q9NZN5 other isoform, or with tags, fused parts or gaps): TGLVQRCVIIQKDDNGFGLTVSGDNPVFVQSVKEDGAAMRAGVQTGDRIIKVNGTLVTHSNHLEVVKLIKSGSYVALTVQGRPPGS

[9] = target: T5, LIN7A, O14910
T5 sequence (O14910 103-200, limits assumed, looked up): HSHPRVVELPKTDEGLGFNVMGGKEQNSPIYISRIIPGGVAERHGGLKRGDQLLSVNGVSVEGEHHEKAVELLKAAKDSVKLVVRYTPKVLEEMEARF

[10] = target: IL16_3, Q14005
IL16_3, Q14005, sequence (Q14005 1107-1207): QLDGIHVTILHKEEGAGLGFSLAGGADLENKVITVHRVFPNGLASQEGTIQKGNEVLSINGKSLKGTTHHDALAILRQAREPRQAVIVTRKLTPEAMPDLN

[11] = target: T6, GRIP1_4, Q9Y3R0
T6 sequence (Q9Y3R0 467-571, limits assumed, looked up): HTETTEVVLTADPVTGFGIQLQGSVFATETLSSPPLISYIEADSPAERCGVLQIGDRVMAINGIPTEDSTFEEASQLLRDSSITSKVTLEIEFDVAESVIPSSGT

[12] = target: T7, CARD11, Q9BXL7
T7 sequence (Q9BXL7 662-765, limits assumed, looked up): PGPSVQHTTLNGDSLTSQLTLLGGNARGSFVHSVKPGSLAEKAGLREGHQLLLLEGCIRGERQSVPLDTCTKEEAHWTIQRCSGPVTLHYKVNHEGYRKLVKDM

[13] = target: T8, APBA2_2, Q99767
T8 sequence (Q99767 654-744, limits assumed, looked up): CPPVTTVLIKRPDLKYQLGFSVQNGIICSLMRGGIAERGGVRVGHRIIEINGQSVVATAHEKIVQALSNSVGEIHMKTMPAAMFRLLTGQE

[14] = target: Inadl_6, Q8NI35
Inadl_6, Q8NI35, sequence (Q8NI35 1058-1167): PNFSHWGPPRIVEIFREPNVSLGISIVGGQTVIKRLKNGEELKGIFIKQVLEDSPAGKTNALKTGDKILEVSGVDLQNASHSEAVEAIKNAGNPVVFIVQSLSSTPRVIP

[15] = target: GRID2IP_2, A4D2P6
GRID2IP_2, A4D2P6, sequence (A4D2P6 272-370): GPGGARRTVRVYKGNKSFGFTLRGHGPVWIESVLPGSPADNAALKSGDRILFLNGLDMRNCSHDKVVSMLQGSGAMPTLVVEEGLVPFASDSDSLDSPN

[16] = target: T9, HTRA3, P83110
T9 sequence (P83110 354-453, limits assumed, looked up): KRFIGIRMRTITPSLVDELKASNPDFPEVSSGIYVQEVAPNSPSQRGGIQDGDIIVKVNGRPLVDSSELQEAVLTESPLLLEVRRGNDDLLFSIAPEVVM

[17] = target: TJP1_2, Q07157
TJP1_2, Q07157, sequence (Q07157 181-274): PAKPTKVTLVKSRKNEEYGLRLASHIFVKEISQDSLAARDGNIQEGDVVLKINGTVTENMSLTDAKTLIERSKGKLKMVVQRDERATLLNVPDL

[18] = target: T10, MPDZ_10, O75970
T10 sequence (O75970 1624-1722, limits assumed, looked up): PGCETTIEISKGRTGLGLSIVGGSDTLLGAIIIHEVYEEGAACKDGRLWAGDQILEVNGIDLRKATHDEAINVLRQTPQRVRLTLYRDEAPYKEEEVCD

[19] = target: T11, GRIP1_7, Q9Y3R0
T11 sequence (Q9Y3R0 999-1096, limits assumed, looked up): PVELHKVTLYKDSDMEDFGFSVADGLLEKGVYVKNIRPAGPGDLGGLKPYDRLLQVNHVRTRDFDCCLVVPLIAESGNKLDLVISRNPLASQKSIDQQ

[20] = target: HTRA1, Q92743
HTRA1, Q92743, sequence (Q92743 360-477): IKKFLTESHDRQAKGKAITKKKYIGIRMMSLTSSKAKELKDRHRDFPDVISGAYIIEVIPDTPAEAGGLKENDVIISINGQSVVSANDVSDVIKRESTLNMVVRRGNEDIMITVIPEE

[21] = target: NHERF4_1, Q86UT5-2
NHERF4_1, Q86UT5-2, sequence (Q86UT5 other isoform, or with tags, fused parts or gaps): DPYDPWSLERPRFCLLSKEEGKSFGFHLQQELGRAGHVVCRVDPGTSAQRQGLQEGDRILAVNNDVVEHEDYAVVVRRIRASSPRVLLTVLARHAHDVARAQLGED

[22] = target: T12, PDZD2_2, O15018
T12 sequence (O15018 329-429, limits assumed, looked up): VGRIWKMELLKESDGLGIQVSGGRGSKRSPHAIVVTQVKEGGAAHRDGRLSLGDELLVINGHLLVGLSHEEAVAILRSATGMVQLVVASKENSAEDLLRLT

[23] = target: T13, SNTG1, Q9NSN8
T13 sequence (Q9NSN8 52-150, limits assumed, looked up): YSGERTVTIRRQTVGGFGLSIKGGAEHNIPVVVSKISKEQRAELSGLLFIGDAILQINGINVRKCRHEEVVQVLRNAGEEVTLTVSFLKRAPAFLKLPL

[24] = plain residues with an end cap or a label only (N-terminal biotin on a linker: ado-ado, ttds)
[25] = plain residues with an end cap or a label only (N-terminal biotin on a linker: ado-ado)
[26] = plain residues with an end cap or a label only (N-terminal biotin on a linker: ttds)
[27] = plain residues with an end cap or a label only (N-terminal biotin on a linker: ahx)

Binder: SNAKAVETDV [KCNA4, P22459]
- pKd [1, 24]: below the threshold
- pKd [2, 24]: below the threshold
- pKd [3, 24]: below the threshold
- pKd [4, 24]: 4.32
- pKd [5, 24]: below the threshold
- pKd [6, 24]: below the threshold
- pKd [7, 24]: below the threshold
- pKd [8, 24]: 3.88
- pKd [9, 24]: below the threshold
- pKd [10, 24]: below the threshold
- pKd [11, 24]: below the threshold
- pKd [12, 24]: 3.55
- pKd [13, 24]: below the threshold
- pKd [14, 24]: below the threshold
- pKd [15, 24]: below the threshold
- pKd [16, 24]: below the threshold
- pKd [17, 24]: below the threshold
- pKd [18, 24]: below the threshold
- pKd [19, 24]: below the threshold
- pKd [20, 24]: below the threshold
- pKd [21, 24]: below the threshold
- pKd [22, 24]: 4.32
- pKd [23, 24]: 4.89

Binder: ELKAEDEVQI [DCHS2, Q6V1P9]
- pKd [1, 25]: below the threshold
- pKd [2, 25]: below the threshold
- pKd [3, 25]: below the threshold
- pKd [4, 25]: below the threshold
- pKd [5, 25]: below the threshold
- pKd [6, 25]: below the threshold
- pKd [7, 25]: below the threshold
- pKd [8, 25]: below the threshold
- pKd [9, 25]: below the threshold
- pKd [10, 25]: below the threshold
- pKd [11, 25]: below the threshold
- pKd [12, 25]: below the threshold
- pKd [13, 25]: below the threshold
- pKd [14, 25]: below the threshold
- pKd [15, 25]: below the threshold
- pKd [16, 25]: below the threshold
- pKd [17, 25]: 3.87
- pKd [18, 25]: below the threshold
- pKd [19, 25]: below the threshold
- pKd [20, 25]: 4.25
- pKd [21, 25]: below the threshold
- pKd [22, 25]: below the threshold
- pKd [23, 25]: below the threshold

Binder: PPRQRSETQV [HPV82-E6, Q9IR59]
- pKd [1, 26]: below the threshold
- pKd [2, 26]: below the threshold
- pKd [3, 26]: 3.34
- pKd [4, 26]: 3.45
- pKd [5, 26]: 4.9
- pKd [6, 26]: below the threshold
- pKd [7, 26]: below the threshold
- pKd [8, 26]: 3.72
- pKd [9, 26]: below the threshold
- pKd [10, 26]: below the threshold
- pKd [11, 26]: below the threshold
- pKd [12, 26]: below the threshold
- pKd [13, 26]: below the threshold
- pKd [14, 26]: below the threshold
- pKd [15, 26]: below the threshold
- pKd [16, 26]: below the threshold
- pKd [17, 26]: below the threshold
- pKd [18, 26]: below the threshold
- pKd [19, 26]: below the threshold
- pKd [20, 26]: below the threshold
- pKd [21, 26]: below the threshold
- pKd [22, 26]: below the threshold
- pKd [23, 26]: 3.99

Binder: SKKNELFSNL [NHERF1, O14745]
- pKd [1, 27]: below the threshold
- pKd [2, 27]: below the threshold
- pKd [3, 27]: below the threshold
- pKd [4, 27]: below the threshold
- pKd [5, 27]: below the threshold
- pKd [6, 27]: below the threshold
- pKd [7, 27]: below the threshold
- pKd [8, 27]: 3.98
- pKd [9, 27]: below the threshold
- pKd [10, 27]: below the threshold
- pKd [11, 27]: below the threshold
- pKd [12, 27]: below the threshold
- pKd [13, 27]: below the threshold
- pKd [14, 27]: below the threshold
- pKd [15, 27]: below the threshold
- pKd [16, 27]: below the threshold
- pKd [17, 27]: below the threshold
- pKd [18, 27]: below the threshold
- pKd [19, 27]: below the threshold
- pKd [20, 27]: below the threshold
- pKd [21, 27]: below the threshold
- pKd [22, 27]: 4.38
- pKd [23, 27]: below the threshold

Binder: SAPATLSSRA [PDLIM2, Q96JY6]
- pKd [1, 27]: below the threshold
- pKd [2, 27]: below the threshold
- pKd [3, 27]: below the threshold
- pKd [4, 27]: below the threshold
- pKd [5, 27]: below the threshold
- pKd [6, 27]: below the threshold
- pKd [7, 27]: below the threshold
- pKd [8, 27]: below the threshold
- pKd [9, 27]: below the threshold
- pKd [10, 27]: below the threshold
- pKd [11, 27]: below the threshold
- pKd [12, 27]: below the threshold
- pKd [13, 27]: below the threshold
- pKd [14, 27]: below the threshold
- pKd [15, 27]: below the threshold
- pKd [16, 27]: below the threshold
- pKd [17, 27]: below the threshold
- pKd [18, 27]: 4
- pKd [19, 27]: below the threshold
- pKd [20, 27]: below the threshold
- pKd [21, 27]: below the threshold
- pKd [22, 27]: below the threshold
- pKd [23, 27]: below the threshold

Binder: SSIDLWETAL [SLC15A5, A6NIM6]
- pKd [1, 26]: below the threshold
- pKd [2, 26]: below the threshold
- pKd [3, 26]: 3.78
- pKd [4, 26]: 4.9
- pKd [5, 26]: 3.73
- pKd [6, 26]: below the threshold
- pKd [7, 26]: 5.38
- pKd [8, 26]: 5.22
- pKd [9, 26]: 4.27
- pKd [10, 26]: below the threshold
- pKd [11, 26]: below the threshold
- pKd [12, 26]: below the threshold
- pKd [13, 26]: below the threshold
- pKd [14, 26]: 5.69
- pKd [15, 26]: 4.54
- pKd [16, 26]: below the threshold
- pKd [17, 26]: below the threshold
- pKd [18, 26]: below the threshold
- pKd [19, 26]: below the threshold
- pKd [20, 26]: 4.25
- pKd [21, 26]: 4.71
- pKd [22, 26]: 4.11
- pKd [23, 26]: 5.41
